Experimental data: US12612465B2, “Formulations comprising PCSK9 specific monoclonal antibodies” (Amgen Inc., priority 2012, dated 2026)

How the values were obtained:
PCSK9 [1] = target: T1, PCSK9 (Homo sapiens, UniProt Q8NBP7); assay: 12 week dose-ranging study in combination with statins (Example 25); format: in vivo; conditions: on statin, preliminary
T1 construct: endogenous in cells; host or cells: human subjects, in vivo
Procedure: Randomization will be stratified by screening LDL-C level (<130 mg/dL [3.4 mmol/L] vs ≥130 mg/dL) and ezetimibe use at baseline (yes vs no). Randomization should occur within 5-10 days of the screening LDL-C evaluation used to determine eligibility. Study visits are every 2 weeks, irrespective whether the subject receives Q2W SC or Q4W treatment. […] The end-of-study visit and the last estimation of lipids is at week 12 for subjects on Q4W IP schedule and week 14 for subjects on Q2W IP schedule.
Males and females, ≥18 to ≤80 years of age, are eligible for this study. For enrollment,
subjects must be on a statin, with or without ezetimibe, with stable dose(s) for at least 4 weeks before LDL-C screening and not requiring uptitration. Fasting LDL-C at screening must be ≥85 mg/dL (2.2 mmol/L). Enrollment of subjects with screening fasting LDL-C between ≥85 mg/dL (2.2 mmol/L) and <100 mg/dL (2.6 mmol/L) will be limited to no more than approximately 20% of total planned enrollment. Fasting triglycerides must be ≤400 mg/dL (4.5 mmol/L) as determined by the central laboratory analysis at screening.

PCSK9 [2] = target: T1, PCSK9; assay: 12 week study in heterozygous familial hypercholesterolemia (Example 22); format: in vivo; conditions: HeFH, preliminary
Procedure: This study is a double-blind, randomized, stratified, placebo-controlled clinical trial evaluating the safety, tolerability, and efficacy of monocloncal antibody 21B12 in subjects having a diagnosis of HeFH. A total enrollment of 150 subjects is planned. […] Randomization will be stratified by screening LDL-C level (<130 mg/dL [3.4 mmol/L] vs ≥130 mg/dL) and ezetimibe use at baseline (yes vs no). Randomization should occur within 5-10 days of the screening LDL-C evaluation used to determine eligibility. Monoclonal antibody, 21B12, and placebo will be blinded. Study visits are at weeks 2, 4, 8, and 12. […] The end-of-study (EOS) visit and the last evaluation of lipids is at week 12.
Males and females, ≥18 to ≤75 years of age, and with a diagnosis of heterozygous familial hypercholesterolemia by the diagnostic criteria of the Simon Broome Register Group (SBRG), are eligible for this study. For enrollment, subjects must be on an approved statin, with stable dose(s) for all allowed (eg, ezetimibe, bile-acid sequestering resin, stanols, or regulatory-approved and marketed niacin (eg, Niaspan or Niacor)) lipid-regulating drugs for at least
4 weeks before LDL-C screening and, in the opinion of the investigator, not requiring uptitration. Fasting LDL-C must be ≥100 mg/dL (2.6 mmol/L) and fasting triglycerides ≤400 mg/dL (4.5 mmol/L) by central laboratory at screening.

[3] = Osmolality of 21B12 formulations; format: physicochemical
Excerpt: In certain embodiments, the pharmaceutical formulation is isotonic with an osmolality ranging from between about 250 to about 350 miliosmol/kg, e.g., about 250 mOsm/kg, about 260 mOsm/kg, about 270 mOsm/kg, about 280 mOsm/kg, about 290 mOsm/kg, about 300 mOsm/kg, about 310 mOsm/kg, about 320 mOsm/kg, about 330 mOsm/kg, about 340 mOsm/kg, or about 350 mOsm/kg, and including all values in between. As used herein, “osmolality” is the measure of the ratio of solutes to volume fluid. In other words, it is the number of molecules and ions (or molecules) per kilogram of a solution. Osmolality may be measured on an analytical instrument called an osmometer, such as Advanced Instruments 2020 Multi-sample Osmometer, Norwood, Mass. The Advanced Instruments 2020 Multi-sample Osmometer measures osmolality by using the Freezing Point Depression method. The higher the osmolytes in a solution, the temperature in which it will freeze drops. Osmolality may also be measured using any other methods and in any other units known in the art such as linear extrapolation.

[4] = 70 mg Q2W SC, end of dosing interval
[5] = 105 mg Q2W SC, end of dosing interval
[6] = 280 mg (Q2W as printed) SC, end of dosing interval
[7] = 350 mg (Q2W as printed) SC, end of dosing interval
[8] = 350 mg Q4W SC, end of dosing interval

T1 sequence (Q8NBP7 153-692): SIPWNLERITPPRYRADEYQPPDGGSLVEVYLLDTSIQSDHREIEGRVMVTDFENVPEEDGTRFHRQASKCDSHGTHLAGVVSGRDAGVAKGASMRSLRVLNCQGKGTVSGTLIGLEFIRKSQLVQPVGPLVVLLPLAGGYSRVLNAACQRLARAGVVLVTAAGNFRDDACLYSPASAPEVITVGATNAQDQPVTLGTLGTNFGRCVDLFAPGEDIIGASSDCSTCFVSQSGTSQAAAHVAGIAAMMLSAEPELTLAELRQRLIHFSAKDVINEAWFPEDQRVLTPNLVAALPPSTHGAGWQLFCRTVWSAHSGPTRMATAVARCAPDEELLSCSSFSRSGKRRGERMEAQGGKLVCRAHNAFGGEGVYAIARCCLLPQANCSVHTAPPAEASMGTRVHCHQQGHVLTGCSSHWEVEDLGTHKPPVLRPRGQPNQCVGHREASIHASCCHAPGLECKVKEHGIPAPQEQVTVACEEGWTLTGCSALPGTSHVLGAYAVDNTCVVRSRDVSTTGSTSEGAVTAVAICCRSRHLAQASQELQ

B1: 21B12: human anti-PCSK9 monoclonal antibody, light/heavy variable region SEQ ID NO 23/49 (antibody, listed as Homo sapiens, V domains shown)
VH: QVQLVQSGAEVKKPGASVKVSCKASGYTLTSYGISWVRQAPGQGLEWMGWVSFYNGNTNYAQKLQGRGTMTTDPSTSTAYMELRSLRSDDTAVYYCARGYGMDVWGQGTTVTVSS
VL: QSALTQPASVSGSPGQSITISCTGTSSDVGGYNSVSWYQQHPGKAPKLMIYEVSNRPSGVSNRFSGSKSGNTASLTISGLQAEDEADYYCNSYTSTSMVFGGGTKLTVL
LS mean percent increase from baseline in HDL-C (PCSK9 [1]; [4]): 21.17%
LS mean percent reduction from baseline in LDL-C (PCSK9 [1]; [4]): 39.22%
LS mean percent reduction from baseline in Lp(a) (PCSK9 [1]; [4]): 21.17%
LS mean percent reduction from baseline in VLDL-C (PCSK9 [1]; [4]): 14.84%
LS mean percent reduction from baseline in non-HDL-C (PCSK9 [1]; [4]): 36.20%
LS mean percent reduction from baseline in total cholesterol (PCSK9 [1]; [4]): 26.33%
LS mean percent reduction from baseline in triglycerides (PCSK9 [1]; [4]): 7.20%
LS mean percent increase from baseline in HDL-C (PCSK9 [1]; [5]): 6.80%
LS mean percent reduction from baseline in LDL-C (PCSK9 [1]; [5]): 56.38%
LS mean percent reduction from baseline in Lp(a) (PCSK9 [1]; [5]): 33.41%
LS mean percent reduction from baseline in VLDL-C (PCSK9 [1]; [5]): 12.75%
LS mean percent reduction from baseline in non-HDL-C (PCSK9 [1]; [5]): 51.20%
LS mean percent reduction from baseline in total cholesterol (PCSK9 [1]; [5]): 36.91%
LS mean percent reduction from baseline in triglycerides (PCSK9 [1]; [5]): 5.65%
LS mean percent increase from baseline in HDL-C (PCSK9 [1]; 140 mg Q2W SC): 8.43%
LS mean percent reduction from baseline in LDL-C (PCSK9 [1]; 140 mg Q2W SC): 68.76%
LS mean percent reduction from baseline in Lp(a) (PCSK9 [1]; 140 mg Q2W SC): 33.87%
LS mean percent reduction from baseline in VLDL-C (PCSK9 [1]; 140 mg Q2W SC): 45.14%
LS mean percent reduction from baseline in non-HDL-C (PCSK9 [1]; 140 mg Q2W SC): 64.61%
LS mean percent reduction from baseline in total cholesterol (PCSK9 [1]; 140 mg Q2W SC): 46.17%
LS mean percent reduction from baseline in triglycerides (PCSK9 [1]; 140 mg Q2W SC): 17.60%
LS mean percent increase from baseline in HDL-C (PCSK9 [1]; [6]): 2.17%
LS mean percent reduction from baseline in Lp(a) (PCSK9 [1]; [6]): 22.54%
LS mean percent reduction from baseline in VLDL-C (PCSK9 [1]; [6]): 18.12%
LS mean percent reduction from baseline in non-HDL-C (PCSK9 [1]; [6]): 38.89%
LS mean percent reduction from baseline in total cholesterol (PCSK9 [1]; [6]): 28.08%
LS mean percent reduction from baseline in triglycerides (PCSK9 [1]; [6]): 6.75%
LS mean percent reduction from baseline in LDL-C (PCSK9 [1]; 280 mg (Q4W) SC, end of dosing interval): 42.62%
LS mean percent increase from baseline in HDL-C (PCSK9 [1]; [7]): 6.92%
LS mean percent reduction from baseline in Lp(a) (PCSK9 [1]; [7]): 29.43%
LS mean percent reduction from baseline in VLDL-C (PCSK9 [1]; [7]): 20.89%
LS mean percent reduction from baseline in non-HDL-C (PCSK9 [1]; [7]): 50.83%
LS mean percent reduction from baseline in total cholesterol (PCSK9 [1]; [7]): 36.04%
LS mean percent reduction from baseline in triglycerides (PCSK9 [1]; [7]): 9.17%
LS mean percent reduction from baseline in LDL-C (PCSK9 [1]; 350 mg SC, end of dosing interval): 56.84%
LS mean percent increase from baseline in HDL-C (PCSK9 [1]; 420 mg (Q2W as printed) SC): 7.42%
LS mean percent reduction from baseline in Lp(a) (PCSK9 [1]; 420 mg (Q2W as printed) SC): 23.29%
LS mean percent reduction from baseline in VLDL-C (PCSK9 [1]; 420 mg (Q2W as printed) SC): 28.66%
LS mean percent reduction from baseline in non-HDL-C (PCSK9 [1]; 420 mg (Q2W as printed) SC): 48.54%
LS mean percent reduction from baseline in total cholesterol (PCSK9 [1]; 420 mg (Q2W as printed) SC): 42.76%
LS mean percent reduction from baseline in triglycerides (PCSK9 [1]; 420 mg (Q2W as printed) SC): 11.13%
LS mean percent reduction from baseline in LDL-C (PCSK9 [1]; 420 mg SC): 52.19%
LS mean percent increase from baseline in HDL-C (PCSK9 [2]; [8]): 15.39%
LS mean percent reduction from baseline in LDL-C (PCSK9 [2]; [8]): 38.46%
LS mean percent reduction from baseline in Lp(a) (PCSK9 [2]; [8]): 21.69%
LS mean percent reduction from baseline in VLDL-C (PCSK9 [2]; [8]): 17.16%
LS mean percent reduction from baseline in non-HDL cholesterol (PCSK9 [2]; [8]): 36.16%
LS mean percent reduction from baseline in total cholesterol (PCSK9 [2]; [8]): 24.82%
LS mean percent reduction from baseline in triglycerides (PCSK9 [2]; [8]): 17.24%
LS mean percent increase from baseline in HDL-C (PCSK9 [2]; 420 mg Q4W SC): 6.77%
LS mean percent reduction from baseline in LDL-C (PCSK9 [2]; 420 mg Q4W SC): 45.68%
LS mean percent reduction from baseline in Lp(a) (PCSK9 [2]; 420 mg Q4W SC): 28.23%
LS mean percent reduction from baseline in VLDL-C (PCSK9 [2]; 420 mg Q4W SC): 18.49%
LS mean percent reduction from baseline in non-HDL cholesterol (PCSK9 [2]; 420 mg Q4W SC): 41.81%
LS mean percent reduction from baseline in total cholesterol (PCSK9 [2]; 420 mg Q4W SC): 29.45%
LS mean percent reduction from baseline in triglycerides (PCSK9 [2]; 420 mg Q4W SC): 4.56%
Osmolality ([3]; 73 mg/mL, 10 mM Na acetate, pH 5.2 +3% proline): 253 mOsmol/kg
Osmolality ([3]; 76 mg/mL, 10 mM Na acetate, pH 5.2): 53 mOsmol/kg
Osmolality ([3]; 116 mg/mL, 10 mM sodium acetate, pH 4.8, 50 mM methionine + 2% benzyl alcohol): 329 mOsmol/kg
Osmolality ([3]; 116 mg/mL, 10 mM sodium acetate, pH 4.8, 150 mM arginine): 241 mOsmol/kg
Osmolality ([3]; 116 mg/mL, 10 mM sodium acetate, pH 4.8, 1.5% proline + 1% benzyl alcohol): 277 mOsmol/kg
Osmolality ([3]; 116 mg/mL, 10 mM sodium acetate, pH 4.8, 2% proline + 1% benzyl alcohol): 313 mOsmol/kg
Osmolality ([3]; 116 mg/mL, 10 mM sodium acetate, pH 4.8, no excipient): 72 mOsmol/kg
Osmolality ([3]; 117 mg/mL, 10 mM Na acetate, pH 4.5): 59 mOsmol/kg
Osmolality ([3]; 122 mg/mL, 10 mM Na acetate, pH 5.2 +3% proline): 274 mOsmol/kg
Osmolality ([3]; 130 mg/mL, 10 mM Na acetate, pH 5): 59 mOsmol/kg
Osmolality ([3]; 148 mg/mL, 10 mM Na acetate, pH 5.2 +3% proline): 301 mOsmol/kg
Osmolality ([3]; 154 mg/mL, 10 mM Na acetate, pH 5.2): Did not freeze
Osmolality ([3]; […], 10 mM Na acetate, pH 4): 59 mOsmol/kg
Osmolality ([3]; […], 10 mM Na acetate, pH 5.2 +150 mM NaCl): 346 mOsmol/kg
Osmolality ([3]; […], 10 mM Na acetate, pH 5.2 +3% proline): 252 mOsmol/kg
Osmolality ([3]; […], 10 mM Na acetate, pH 5.5): 64 mOsmol/kg
Osmolality ([3]; […], 10 mM Na acetate, pH 5.5 +150 Mm methionine and 3% benzyl alcohol): 520 mOsmol/kg
